Reference: US20220282217A1 (BIONTECH US, published 2022)

What was measured:
[1] = target: T1, HLA class I molecule A02.01; assay: competition binding assay with purified class I MHC: test peptide at varying concentrations displaces a radiolabeled reference peptide, read by size exclusion gel filtration; column 'Observed MHC Affinity (nM)'
T1 construct: Purified MHC class I complex; also called HLA-A02:01
Procedure: (§1) Peptides were incubated at varying concentrations with these complexes for 2 days, and the amount of remaining radiolabeled peptide bound to […] was measured using size exclusion gel-filtration.

[2] = target: T1, HLA class I molecule A02.01; assay: pMHC-I dissociation half-life, 125I-b2m
How it was run: (§2)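 Biotinylated MHC-I heavy chain made in E. coli, captured on streptavidin plates and complexed with peptide and radiolabelled light chain. Dissociation started with excess unlabelled light chain at 37 °C. Stability is the half-life in hours from scintillation counts.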

HLA-B*40:02 = HLA-B*40:02 (human); assay: peptides eluted from HLA-peptide complexes by acid wash, targeted MS/MS (PRM); 293T cells transduced with GATA3 neoORF, expressing HLA-B*40:02
Procedure: Between 50 and 700 million of the transduced cells expressing peptides encoded by the GATA3 neoORF sequence were cultured and peptides were eluted from HLA-peptide complexes using an acid wash. Eluted peptides were then analyzed by targeted MS/MS using PRM.

HLA-A24.02 [3] = target: T2, HLA-A24.02 (human); assay: competition with radiolabeled reference peptide, purified MHC I
T2 construct: Purified class I MHC
Procedure: as §1

[4] = target: HLA-A03:01 class I MHC molecule (human); assay: pMHC-I dissociation at 37 C, 125I-labeled b2m, scintillation counts
Procedure: (§3) Briefly, synthetic genes encoding biotinylated MHC-I heavy and light chains are expressed in E. coli and purified from inclusion bodies using standard methods. […] These reactions are carried out in streptavidin coated microplates to bind the biotinylated MHC-I heavy chains to the surface and allow measurement of radiolabeled light chain to monitor complex formation. Dissociation is initiated by addition of higher concentrations of unlabeled light-chain and incubation at 37° C. Stability is defined as the length of time in hours it takes for half of the complexes to dissociate, as measured by scintillation counts.

[5] = target: T3, HLA-A01:01 class I MHC molecule (human); assay: as above
T3 construct: heavy chain biotinylated and made in E. coli in the stability assay
Procedure: as §3

[6] = target: HLA-A11:01 class I MHC molecule (human); assay: competition with a radiolabeled reference peptide for purified MHC I, gel filtration; 'Affinity (nM)'; affinity assay, column 'Affinity (nM)'
Procedure: as §1

[7] = target: HLA-A03:01 class I MHC molecule (human); assay: competition with a radiolabeled reference peptide for purified MHC I, gel filtration; 'Affinity (nM)'
Procedure: as §1

[8] = target: T4, HLA class I molecule B08.01; assay: competition with radiolabeled reference peptide on purified MHC I
T4 construct: Purified MHC class I complex; also called HLA-B08:01
Procedure: as §1

[9] = target: T1, HLA class I molecule A02.01; assay: as above
Procedure: as §1

[10] = target: T4, HLA class I molecule B08.01; assay: pMHC-I dissociation half-life, 125I-b2m
How it was run: as §2

HLA-A01.01 = target: T5, HLA-A01.01 (human); assay: competition with radiolabeled reference peptide, purified MHC I
T5 construct: Purified class I MHC
Procedure: as §1

HLA-A02.01 [11] = target: HLA-A02.01 (human); assay: pMHC-I complex dissociation at 37 C, 125I-b2m, half-life
How it was run: as §2

HLA-A03.01 [12] = target: T6, HLA-A03.01 (human); assay: as above
T6 construct: As for HLA-A02.01
How it was run: as §2

HLA-A02.01 [13] = target: HLA-A02.01 (human); assay: competition vs radiolabeled reference peptide on purified MHC I, gel filtration
Procedure: as §1

HLA-A03.01 [14] = target: T6, HLA-A03.01; assay: as above
Procedure: as §1

[15] = target: HLA-A24:02 class I MHC molecule (human); assay: pMHC-I dissociation at 37 C, 125I-labeled b2m, scintillation counts
Procedure: as §3

[16] = target: HLA-A24:02 class I MHC molecule (human); assay: competition with a radiolabeled reference peptide for purified MHC I, gel filtration; 'Affinity (nM)'
Procedure: as §1

[17] = target: T7, HLA-A02.01 class I MHC molecule (prepared complex) (human); assay: dissociation of peptide-MHC-I complex at 37 C, 125I-labelled b2m, scintillation
Procedure: as §3

[18] = target: T7, HLA-A02.01 class I MHC molecule …; assay: displacement of radiolabeled reference peptide from class I MHC, gel filtration; 'Affinity (nM)'
Procedure: as §1

HLA-A03.01 [19] = target: T8, HLA-A03.01 (human); assay: competition with radiolabeled reference peptide, purified MHC I
T8 construct: Purified class I MHC
Procedure: as §1

HLA-B07.02 [20] = target: T9, HLA-B07.02 (human); assay: as above
T9 construct: Purified class I MHC
Procedure: as §1

HLA-B08.01 [21] = target: T10, HLA-B08.01 (human); assay: as above
T10 construct: Purified class I MHC
Procedure: as §1

HLA-A02.01 [22] = target: T11, HLA-A02.01 (human); assay: pMHC-I dissociation half-life, 125I-b2m
T11 construct: Purified class I MHC
How it was run: as §2

HLA-A03.01 [23] = target: T8, HLA-A03.01; assay: pMHC-I dissociation half-life, 125I-b2m
How it was run: as §2

HLA-B07.02 [24] = target: T9, HLA-B07.02; assay: pMHC-I dissociation half-life, 125I-b2m
How it was run: as §2

HLA-B08.01 [25] = target: T10, HLA-B08.01; assay: pMHC-I dissociation half-life, 125I-b2m
How it was run: as §2

HLA-A11.01 [26] = target: T12, HLA-A11.01 (human); assay: competition binding assay with purified class I MHC: test peptide at varying concentrations displaces a radiolabeled reference peptide, read by size exclusion gel filtration; column 'Observed MHC Affinity (nM)'
T12 construct: Purified class I MHC
Procedure: as §1

[27] = target: T13, HLA class I molecule A03.01; assay: competition with radiolabeled reference peptide on purified MHC I
T13 construct: Purified MHC class I complex; also called HLA-A03:01
Procedure: as §1

HLA-A11.01 [28] = target: T12, HLA-A11.01; assay: pMHC-I dissociation assay with 125I-labeled beta2m light chain at 37 C, scintillation counts; time in hours for half of the complexes to dissociate
Procedure: as §3

[29] = target: T13, HLA class I molecule A03.01; assay: as above
Procedure: as §3

[30] = target: T3, HLA-A01:01 class I MHC molecule; assay: competition with a radiolabeled reference peptide for purified MHC I, gel filtration; 'Affinity (nM)'
Procedure: as §1

HLA-B07.02 [31] = target: T14, HLA-B07.02 (human); assay: pMHC-I complex dissociation at 37 C, 125I-b2m, half-life
T14 construct: As for HLA-A02.01
How it was run: as §2

HLA-B07.02 [32] = target: T14, HLA-B07.02; assay: competition vs radiolabeled reference peptide on purified MHC I, gel filtration
Procedure: as §1

[33] = target: HLA-B08:01 class I MHC molecule (human); assay: pMHC-I dissociation at 37 C, 125I-labeled b2m, scintillation counts
Procedure: as §3

[34] = target: HLA-B08:01 class I MHC molecule (human); assay: competition with a radiolabeled reference peptide for purified MHC I, gel filtration; 'Affinity (nM)'
Procedure: as §1

[35] = target: T13, HLA class I molecule A03.01; assay: pMHC-I dissociation half-life, 125I-b2m
How it was run: as §2

[36] = target: T15, HLA class I molecule B07.02; assay: competition with radiolabeled reference peptide on purified MHC I
T15 construct: Purified MHC class I complex; also called HLA-B07:02
Procedure: as §1

[37] = target: T16, HLA class I molecule A24.02; assay: as above
T16 construct: Purified MHC class I complex; also called HLA-A24:02
Procedure: as §1

[38] = target: T15, HLA class I molecule B07.02; assay: pMHC-I dissociation half-life, 125I-b2m
How it was run: as §2

[39] = target: T16, HLA class I molecule A24.02; assay: pMHC-I dissociation half-life, 125I-b2m
How it was run: as §2

HLA-A02.01 [40] = target: T11, HLA-A02.01; assay: competition with radiolabeled reference peptide, purified MHC I
Procedure: as §1

HLA-A24.02 [41] = target: T2, HLA-A24.02; assay: pMHC-I dissociation half-life, 125I-b2m
How it was run: as §2

B1: SMLTGPPARV (peptide)
peptide: SMLTGPPARV
notes: also called GATA3 . . ; CSNH
[1]
  IC50: 14 nM
[2]
  Stability (T1/2 (h)): 21.7 h

B2: GATA3 neoORF peptide AESKIMFATL (peptide)
peptide: AESKIMFATL
HLA-B*40:02
  binding result: binds

B3: KLRSPLWIF (peptide)
peptide: KLRSPLWIF
notes: also called SMAP1(-1)
HLA-A24.02 [3]
  IC50: 828 nM

B4: BTK, C481S peptide MANGSLLNY (peptide)
peptide: MANGSLLNY
[4]
  Stability (half-life (hr.)): 14.3 min
[5]
  Stability (half-life (hr.)): 13 min
[6]
  IC50: 536 nM
[7]
  IC50: 35.6 nM

B5: YQQQQQSDL (peptide)
peptide: YQQQQQSDL
notes: also called MYC, E39D
[8]
  IC50: 18900 nM
[9]
  IC50: 799 nM
[10]
  Stability (T1/2 (h)): 0 h
[2]
  Stability (T1/2 (h)): 0.4 h

B6: VMSDTTYKIY (peptide)
peptide: VMSDTTYKIY
notes: also called TTK(-1)
HLA-A01.01
  IC50: 376 nM

B7: KLFSCLSFL (peptide)
peptide: KLFSCLSFL
notes: also called C15ORF40(+1)
HLA-A02.01 [11]
  Stability (T1/2 (h)): 14.3 h
HLA-A03.01 [12]
  Stability (T1/2 (h)): 0.8 h
HLA-A02.01 [13]
  IC50: 6 nM
HLA-A03.01 [14]
  IC50: 308 nM

B8: BTK, C481S peptide EYMANGSLL (peptide)
peptide: EYMANGSLL
[15]
  Stability (half-life (hr.)): 343 min
[16]
  IC50: 4.96 nM

B9: EGFR_T790M peptide LIMQLMPFGC (peptide)
peptide: LIMQLMPFGC
notes: synthetic peptide holding the EGFR T790M mutation
[17]
  Stability (half-life (hr.)): 22.9 min
[18]
  IC50: 132 nM

B10: KLMLLRLNL (peptide)
peptide: KLMLLRLNL
notes: also called SEC31A(-1)
HLA-A03.01 [19]
  IC50: 210 nM
HLA-B07.02 [20]
  IC50: 133 nM
HLA-B08.01 [21]
  IC50: 58.4 nM
HLA-A02.01 [22]
  Stability (T1/2 (h)): 16.9 h
HLA-A03.01 [23]
  Stability (T1/2 (h)): 0 h
HLA-B07.02 [24]
  Stability (T1/2 (h)): 1.5 h
HLA-B08.01 [25]
  Stability (T1/2 (h)): 0 h

B11: MSDTTYKIY (peptide)
peptide: MSDTTYKIY
notes: also called TTK(-1)
HLA-A01.01
  IC50: 10.2 nM

B12: KIMFATLQR (peptide)
peptide: KIMFATLQR
notes: also called GATA3 . . ; CSNH
HLA-A11.01 [26]
  IC50: 23 nM
[27]
  IC50: 2.5 nM
HLA-A11.01 [28]
  Observed MHC Stability: 8.9 h
[29]
  Observed MHC Stability: 5.6 h

B13: BTK, C481S peptide YMANGSLLNY (peptide)
peptide: YMANGSLLNY
[4]
  Stability (half-life (hr.)): 16.7 min
[5]
  Stability (half-life (hr.)): 52 min
[6]
  IC50: 974 nM
[7]
  IC50: 95.9 nM
[30]
  IC50: 13.2 nM

B14: KLSDSRTAL (peptide)
peptide: KLSDSRTAL
notes: also called FRG1B, I1OT (so in the source); FRG1B, I10T
HLA-A02.01 [11]
  Stability (T1/2 (h)): 2.8 h
HLA-B07.02 [31]
  Stability (T1/2 (h)): 6.8 h
HLA-B07.02 [32]
  IC50: 9 nM

B15: BTK_C481S peptide SLLNYLREM (peptide)
peptide: SLLNYLREM
[33]
  Stability (half-life (hr.)): 0 h
[34]
  IC50: 960 nM

B16: KVSRENTSPK (peptide)
peptide: KVSRENTSPK
notes: also called HER2, L7555
[27]
  IC50: 7 nM
[35]
  Stability (T1/2 (h)): 13.5 h

B17: ALSASNSCF (peptide)
peptide: ALSASNSCF
notes: also called FRG1B, L52S
[36]
  IC50: 684 nM
[37]
  IC50: 16300 nM
[9]
  IC50: 728 nM
[38]
  Stability (T1/2 (h)): 0 h
[39]
  Stability (T1/2 (h)): 0.2 h
[2]
  Stability (T1/2 (h)): 0.3 h

B18: GATA3 neoORF peptide AESKIMFAT (peptide)
peptide: AESKIMFAT
HLA-B*40:02
  binding result: binds

B19: BTK_C481S peptide MANGSLLNYL (peptide)
peptide: MANGSLLNYL
[33]
  Stability (half-life (hr.)): 0 h

B20: MNWRPILTII (peptide)
peptide: MNWRPILTII
notes: also called TP53, R248W
HLA-A24.02 [3]
  IC50: 44900 nM
HLA-A02.01 [40]
  IC50: 1030 nM
HLA-A24.02 [41]
  Stability (T1/2 (h)): 0 h
HLA-A02.01 [22]
  Stability (T1/2 (h)): 0.4 h

B21: FQMQPLSLM (peptide)
peptide: FQMQPLSLM
notes: also called JAK1(-1)
[37]
  IC50: 14600 nM
[9]
  IC50: 553 nM
[10]
  Stability (T1/2 (h)): 0 h
[38]
  Stability (T1/2 (h)): 0 h
[39]
  Stability (T1/2 (h)): 0 h
[2]
  Stability (T1/2 (h)): 0.3 h
